Experimental data taken from patent US10040853B2, “Methods and compositions involving NKG2D inhibitors and cancer” (Fred Hutchinson Cancer Research Center, priority 2011, dated 2018).

Tests used:
Format in all cases: cell-based, human
[1] = system: P-ERK1/2(T202/Y204); assay: ERK MAP kinase activation by sMICA plus crosslinking anti-His tag Ab (immunoblot); settings: for phosphorylation of ERK1/2: desensitized EpCAM+CD45− ovarian cancer (OT63), HTB-78, MCF-7-TF cells, sMICA 1 μg/ml crosslinked by anti-His tag Ab, or EGF 100 ng/ml
Description: (§1) NKG2D was immunoprecipitated from standard NP-40 buffer lysates of FACSAria-sorted EpCAM^+CD45^− cancer cells (˜5×10^6 per lane), tumor lines (˜5×10^7 cells; 2×10^7 cells with BT-20), and transfectants (5×10^6 cells) using mAb 5C6 immobilized on AminoLink Plus Coupling Resin (Pierce). DAP10 was immunoprecipitated using rabbit polyclonal antibodies (FL-93; Santa Cruz Biotechnology). Immunoblots were probed with polyclonal antibodies to NKG2D or DAP10 (N-20 and N-17; Santa Cruz Biotechnology), or Grb2 (Cell Signaling Technology) and developed using secondary reagents and Supersignal West Dura Extended Duration Substrate (Pierce). Immunoprecipitation and immunoblot detection of mouse NKG2D utilized a rat mAb (clone 191004; R&D Systems) and goat polyclonal reagent (H-15; Santa Cruz Biotechnology), respectively. For P-AKT induction, cancer cells and tumor lines (2×10^6 cells per experimental condition) cultured in 6-well plates were desensitized for 16 h and 4-24 h, respectively, in serum-free RPMI at 37° C. before exposure in 0.5 ml RPMI to insulin (5 μg/ml; 35 min at 37° C.), mAb 1D11 (purified with MabTrap Kit; GE Healthcare Life Sciences) or mAb 5C6 F(ab′)2 (produced with Pierce F(ab′)2 preparation kit) (each 5 μg/ml; 30 min at 4° C.). For crosslinking, washed cells in 0.2 ml RPMI were exposed to goat anti-mouse F(ab′)2 (20 μg/ml; 5 min at 37° C.; Jackson ImmunoResearch). Wortmannin (100 nM; Sigma) was applied 2 h before stimulations. Reactions were terminated on ice by addition of 1 ml sodium orthovanadate (Na3VO4, 2 mM in cold PBS; Calbiochem) and cells resuspended in NP-40 lysis buffer with protease inhibitor cocktail (Roche) and Na3VO4. Cleared supernatants were subjected to SDS-PAGE (4-12% gradient NuPAGE gels; Invitrogen) and proteins electroblotted onto PVDF membranes (Immobilon-P; Millipore), which were probed with rabbit anti-human phospho-AKT(S473) (clone 193H12) or pan-AKT (clone C67E7), secondary HRP-conjugated anti-rabbit IgG (all from Cell Signaling Technology), and chemiluminescent reagent. […] Inhibitors wortmannin (100 nM) and rapamycin (50 nM; LC Laboratories) were added after 2 h of desensitization. Detached cells were sequentially washed and exposed to 1D11 mAb and crosslinking Ab in 0.5 and 0.2 ml cold HBSS, respectively, and processed as above. […] Phosphoproteins and protein controls were detected using rabbit polyclonal antibodies (to P-mTOR, P-S6K1, and P-4E-BP1), mAbs (clones 7C10, 236B4, and 53H11), and anti-rabbit IgG-HRP (all from Cell Signaling Technology). MAPKs were detected with cells grown to semi-confluence in 6-well plates and desensitized for 24 h. […]
(§2) As determined so far, signaling pathway activation by NKG2D-DAP10 in tumor cells was similar to lymphocytes. […]

[2] = system: P-JNK1/2(T183/Y185); assay: JNK MAP kinase activation by sMICA plus crosslinking anti-His tag Ab (immunoblot); settings: for phosphorylation of JNK1/2: desensitized EpCAM+CD45− ovarian cancer (OT63), HTB-78, MCF-7-TF cells, sMICA 1 μg/ml crosslinked by anti-His tag Ab, or EGF 100 ng/ml
Description: as §1, §2

[3] = system: surface NKG2D; assay: Flow cytometry of tumor lines for surface NKG2D; settings: breast, colon, gastric, ovarian, prostate tumor lines after exposure
Description: Tumor cell lines BT-20, MDA-MB-453, HTB-78, AGS, MDA-MB-231, DLD-1, PC3, and A375 were grown in RPMI 1640, and MCF-7 in Eagle's minimal essential medium (EMEM) plus insulin (0.01 mg/ml; Sigma), both media supplemented with 10% FBS. The mouse TEC and PAM 212 lines were from the ATCC, and […] was provided by Dr. Norm Greenberg (FHCRC). Abs for immunohistochemistry and flow cytometry of cell surface markers were mAb together with HRP-conjugated secondary reagents and mAb-fluorochrome conjugates, respectively, to NKG2D (clone 1D11, -APC; 3), MICA/MICB (clone 6D4, -PE; 7), CD45 (clone 2D1, -APC-Cy7), CD3 (clone UCHT1) (all from BD Pharmingen), and EpCAM (clone 9C4, -Alexa Fluor 488; BioLegend). Binding of anti-ULBP1-5 antibodies (mAbs 3F1, 6F6, 4F9, 6E6, and 6D10; 14) was visualized with a PE-conjugated secondary reagent. Cancer cell viability was assessed using a LIVE/DEAD Fixable Violet Dead Cell Stain kit (Invitrogen). Immunohistochemistry stainings of tissue cryosections employed the Envision System (Dako) protocol. Cells were examined for mAb surface stainings using a BD LSR II flow cytometer and FlowJo software (Tree Star).

[4] = system: P-AKT(S473); assay: P-AKT induction after NKG2D crosslinking in freshly isolated cancer cells (immunoblot); settings: sorted EpCAM+CD45− breast, ovarian, prostate cancer cells after serum deprivation; crosslinked Ab 5 μg/ml or insulin 5 μg/ml
Description: (§3) NKG2D was immunoprecipitated from standard NP-40 buffer lysates of FACSAria-sorted EpCAM^+CD45^− cancer cells (˜5×10^6 per lane), tumor lines (˜5×10^7 cells; 2×10^7 cells with BT-20), and transfectants (5×10^6 cells) using mAb 5C6 immobilized on AminoLink Plus Coupling Resin (Pierce). DAP10 was immunoprecipitated using rabbit polyclonal antibodies (FL-93; Santa Cruz Biotechnology). Immunoblots were probed with polyclonal antibodies to NKG2D or DAP10 (N-20 and N-17; Santa Cruz Biotechnology), or Grb2 (Cell Signaling Technology) and developed using secondary reagents and Supersignal West Dura Extended Duration Substrate (Pierce). Immunoprecipitation and immunoblot detection of mouse NKG2D utilized a rat mAb (clone 191004; R&D Systems) and goat polyclonal reagent (H-15; Santa Cruz Biotechnology), respectively. […] Phosphoproteins and protein controls were detected using rabbit polyclonal antibodies (to P-mTOR, P-S6K1, and P-4E-BP1), mAbs (clones 7C10, 236B4, and 53H11), and anti-rabbit IgG-HRP (all from Cell Signaling Technology). MAPKs were detected with cells grown to semi-confluence in 6-well plates and desensitized for 24 h. […]

[5] = system: P-mTOR(S2448), P-S6K1(T389), and P-4E-BP1(T37/46); assay: Activation of mTOR-S6K1/4E-BP1 after NKG2D crosslinking (immunoblot); settings: HTB-78 and MCF-7-TF cells after starvation
Description: Detached cells were sequentially washed and exposed to 1D11 mAb and crosslinking Ab in 0.5 and 0.2 ml cold HBSS, respectively, and processed as above. Sample electrophoresis was in 3-8% (mTOR) and 4-12% (4E-BP1) gradient NuPAGE gels. Phosphoproteins and protein controls were detected using rabbit polyclonal antibodies (to P-mTOR, P-S6K1, and P-4E-BP1), mAbs (clones 7C10, 236B4, and 53H11), and anti-rabbit IgG-HRP (all from Cell Signaling Technology).

[6] = system: P-AKT(S473); assay: P-AKT induction after NKG2D crosslinking in tumor lines (immunoblot); settings: desensitized MCF-7, BT-20, MDA-MB-453, HTB-78, DLD-1, AGS cells
Description: as §3

[7] = system: MCF-7 cells; assay: Expansion of siRNA-transduced MCF-7 cells
[8] = system: AKT(S473) phosphorylation; assay: Inducible AKT phosphorylation in siRNA-transduced MCF-7 cells; settings: lentiviral siRNA transduction
Description: as §3

[9] = system: DAP10; assay: DAP10 protein depletion by siRNA (immunoblot); settings: CD8 T cells, 2×10^6 per lane
Description: as §3

[10] = system: NKG2D; assay: NKG2D protein depletion by siRNA (immunoblot); settings: CD8 T cells, 2×10^6 per lane
Description: as §3

[11] = system: MCF-7-TF cells; assay: EMT-like phenotype of MCF-7-TF cells (phase contrast, IF microscopy, immunoblot)
Description: Diagnostic of EMT, among other criteria, are reduced expression of E-cadherin and induction of N-cadherin (Polyak and Weinberg, 2009; Thiery et al., 2009; Yang and Weinberg, 2008). […] Among key transcription factors is SNAI1 and Twist, which were induced in MCF-7-TF as well as in MCF-10A-TF and SUM149PT-TF cells (FIG. 8C). MCF-7-TF cells also scored increased migratory and invasive activities in Matrigel assays (FIG. 8D). Both ERK- and AKT-initiated signaling have been implicated in cancer EMT (Thiery et al., 2009).

[12] = system: MCF-7-TF cells; assay: Cell cycle analysis by propidium iodide staining; settings: MCF-7-TF cells plated 24 h at near confluence without growth factors; Abs each 10 μg/ml
Description: DNA contents were determined with 70% EtOH-permeabilized and fixed cells treated with PI/RNase staining buffer (BD Pharmingen). Prior to analysis, cells were plated for 24 h in the presence or absence of each 10 μg/ml anti-MIC and -ULBP3 and -ULBP4 mAb or control Ig. Flow cytometry data were analysed using FlowJo cell cycle software with quantitative analysis based on Dean-Jett-Fox model curve fitting. Cellular ATP was determined using the ATPlite luminescence assay system (PerkinElmer). Real-time oxygen consumption and extracellular acidification rates were measured employing the Seahorse Bioscience Extracellular Flux Analyzer XF24 with cells (3×10^4) seeded in custom 24-well plates and grown overnight (34). Metabolic rates were calculated from multiple measurements in buffer-free medium within one h at 37° C. Differences in cell growth rates were accounted for by using fluorescence emission values of Hoechst stainings to calculate normalization factors for cell number corrections.
The inventors thus explored effects on cellular functions resulting from NKG2D stimulation using the MCF-7 mock-transfected control and MCF-7-TF model cells. Cells were plated at near confluence in the absence of growth factors with or without the relevant anti-MIC and anti-ULBP1/3/4 Abs or control Ig 24 h before assay time (FIG. 7). […]

[13] = system: MCF-7-TF cells; assay: Migration through porous filters and invasion in Matrigel assay
Description: MCF-7 cells were evaluated for stimulation of cellular migration through porous filters and for invasion of reconstituted basement membranes in MATRIGEL assays (FIG. 10).

[14] = U0126 10 μM, SP600125 100 μM, wortmannin 200 nM, added 30 min before stimulation
[15] = tumor cell exposure to sMICA or anti-His tag Ab alone, no crosslinking

With “EGF: rhEGF, positive control activation of MAP kinases [reference compound]” the “phosphorylation of ERK1/2” value [1] was “positive control activation” and the “phosphorylation of JNK1/2” value [2] was “positive control activation”.

For “IL-15: cytokine which induces T cell NKG2D”, the “surface NKG2D expression” value [3] was “No increased expression”.

N#CC(=C(/N)Sc1ccccc1N)/C(C#N)=C(\N)Sc1ccccc1N [U0126, reference compound] was tested, and the “effect of inhibitor on appearance of P-ERK1/2” value [1, 14] was “diminished” and the “effect of inhibitor on appearance of P-JNK1/2” value [2, 14] was “not vice versa”.

With “insulin: positive control activation of AKT, 5 μg/ml” the “induction of Phospho-AKT (P-AKT)” value [4] was “positive control activation except for the unresponsive prostate cancer cells”, the “induction of P-mTOR(S2448), P-S6K1(T389), P-4E-BP1(T37/46)” value [5] was “positive control activation” and the “induction of P-AKT” value [6] was “positive control activation”.

B1: DAP10 siRNA: lentivirally expressed hairpin siRNA targeting DAP10 (HCST) mRNA positions 165-193; oligonucleotides SEQ ID NO:21 and 22 (nucleic acid, listed as Homo sapiens)
chain 1: CTAGAAGCTCAGACGACTCCAGGAGAGAGATCATTCAAGAGATGATCTCTCTCCTGGAGTCGTCTGAGCTTTTTTTGAT
chain 2: ATCAAAAAAAGCTCAGACGACTCCAGGAGAGAGATCATCTCTTGAATGATCTCTCTCCTGGAGTCGCTGAGCTT
modifications: the letters are possibly those of the target site
For B1, the “proliferation of transduced cells” value [7] was “proliferated poorly”, the “inducible AKT(S473) phosphorylation” value [8] was “Absence of inducible AKT(S473) phosphorylation” and the “depletion of DAP10” value [9] was “depletion”.

B2: sMICA: recombinant soluble MICA, His-tagged NKG2D ligand purified from transfected 293T cells (protein)
chain: EPHSLRYNLTVLSWDGSVQSGFLTEVHLDGQPFLRCDRQKCRAKPQGQWAEDVLGNKTWDRETRDLTGNGKDLRMTLAHIKDQKEGLHSLQEIRVCEIHEDNSTRSSQHFYYDGELFLSQNLETKEWTMPQSSRAQTLAMNVRNFLKEDAMKTKTHYHAMHADCLQELRRYLKSGVVLRRTVPPMVNVTRSEASEGNITVTCRASGFYPWNITLSWRQDGVSLSHDTQQWGDVLPDGNGTYQTWVATRICQGEEQRFTCYMEHSGNHSTHPVPSGKVLVLQSHW
modifications: left off: small tags and cut ends
notes: recombinant soluble MICA, His-tagged NKG2D ligand purified from transfected 293T cells
In the case of B2, the “phosphorylation of ERK1/2” value [1] is reported as “resulted in phosphorylation”, the “phosphorylation of ERK1/2, reagent alone” value [1, 15] is reported as “no effect” and the “phosphorylation of JNK1/2” value [2] is reported as “resulted in phosphorylation”. For the same molecule, the “phosphorylation of JNK1/2, reagent alone” value [2, 15] was “no effect”.

B3: RNAi targeting of NKG2D: lentivirally expressed hairpin siRNA targeting NKG2D (KLRK1) mRNA positions 690-710; oligonucleotides SEQ ID NO:19 and 20 (nucleic acid, listed as Homo sapiens)
chain 1: CTAGACCCAACCTACTAACAATAATTTCAAGAGAATTATTGTTAGTAGGTTGGGTTTTTGAT
chain 2: ATCAAAAAACCCAACCTACTAACAATAATTCTCTTGAAATTATTGTTAGTAGGTTGGGT
modifications: the letters are possibly those of the target site
For B3, the “depletion of NKG2D” value [10] was “depletion”, the “changes in epithelial and mesenchymal marker proteins (E-cadherin, N-cadherin)” value ([11]; IF microscopy and immunoblot) was “reversed” and the cell morphology ([11]; phase contrast microscopy) was “restored the parental cell morphology”. The “effect on enlarged proportions of cells in S and G2 phase” value [12] was “reversed”, the “inducible AKT(S473) phosphorylation” value [8] was “Absence of inducible AKT(S473) phosphorylation” and the “migratory and invasive activities” value [13] was “suppressed”.
